Experimental findings from publication PMC4919432 are described below.

The target of experiment [1] is Mec1·Ddc2 complex (yeast (budding yeast)) (UniProt P38111). The experiment is described as follows: SEC; Mec1·Ddc2 on Superose 6 HR 10/30, 0.3 ml/min; 50 mM HEPES-KOH pH 7.4, 200 mM KCl, 10% glycerol, 0.1% Tween 20, 0.01% Nonidet P-40, 1 mM EDTA, 1 mM EGTA, 2 mM DTT; size against Bio-Rad gel filtration standards; peak fractions on SDS-PAGE.
For experiment [2] the target is unchanged. The experiment is described as follows: negative stain electron microscopy, single-particle reconstruction; 70 nM Mec1·Ddc2 in 30 mM HEPES pH 7.4, 200 mM NaCl, 5% glycerol, 0.5 mM EDTA, 1 mM DTT; 2% uranyl acetate; C2 symmetry applied; 22.5 Å.
For experiment [3], the target named is Tel1 (yeast (budding yeast)) (UniProt P38110). The experiment is described as follows: SEC; Tel1 on Superose 6 Increase 5/150 GL, 0.1 ml/min; 50 mM HEPES-KOH pH 7.4, 200 mM KCl, 10% glycerol, 0.1% Tween 20, 0.02% C12E10, 1 mM EDTA, 3 mM DTT; size against Bio-Rad gel filtration standards.
The target is the same in experiment [4]. Nature of the experiment: cryo-EM structure; 20 nM Tel1 in 50 mM HEPES-KOH pH 7.4, 210 mM KCl, 1% glycerol, 0.02% Tween 20, 0.002% Nonidet P-40, 1 mM EDTA, 0.5 mM EGTA, 1 mM DTT, 0.5 mM MgCl2; holey carbon grids with a thin carbon layer; 19.2 Å.
For experiment [5] the target is unchanged. Nature of the experiment: negative stain electron microscopy, single-particle reconstruction; 20 nM Tel1 in 50 mM HEPES pH 7.4, 150 mM NaCl, 5% glycerol, 1 mM EDTA, 1 mM DTT; 2% uranyl acetate; C2 symmetry applied; 21 Å (FSC 0.5).

Consider “Mec1·Ddc2 complex, P38111 1-2368; Q04377 1-747”, for which the stoichiometry N in experiment [1] came to 2. Further, in experiment [2], the percent of particles of the size of the dimer is 81% and the stoichiometry N is 2.
Regarding Tel1, P38110 1-2787, the stoichiometry N in experiment [3], in experiment [4] and in experiment [5] was 2 throughout.
